Reference: PMC5665596

How the values were obtained:
MotS (B. subtilis) = test: high-speed atomic force microscopy
[1] = target: MotS_(D30A) (B. subtilis); test: high-speed atomic force microscopy

stoichiometry N (MotS (B. subtilis))	percent of particles with an unfolded conformation of MotSC [1] [%]	Substance
2	–	MotS (natural protein)
–	18	MotS_(D30A) (natural protein)
